Patent US20110306546A1, “COMPOSITIONS FOR INCREASING HAIR GROWTH AND DECREASING HAIR LOSS” (ALVI ARMANI GENOMICS INC., priority 2010, published 2011)

The molecules below were run on Hair follicles (HF) (assay: Hair follicle (HF) explant growth assay). Conditions: HF elongation after 7-8 days; 20 ng/ml of each growth factor, hypoxanthine 2 μM; mean of 6-8 independent experiments.
Assay type: cell-based, human
Description: Hair follicles (HF) were extracted from the occipital area of 6-8 individuals with hair loss. The HFs were processed to equivalent lengths and cultured in William's E medium supplemented with 100 units/ml penicillin G, 100 μg/ml streptomycin, 0.25 μg/ml amphotericin B, […], 1 ng/ml hydrocortisone; basic medium or control medium or basic medium supplemented with 20 ng/ml of each of IGF-1, FGF-2, PDGF, Wnt-3A (Wnt), Noggin (Nog), Ephrin A3 (Eph), SHH and BMP-6 as well as hypoxanthine (Hyx) at 2 μM final concentration. The “GF10 cocktail” or “GF10” includes all nine growth factors and hypoxanthine while the “GF7 cocktail” or “GF7” contains six growth factors (all growth factors of GF10 except for FGF-10, Eph and SHH) and hypoxanthine. Growth promotion was measured as elongation of the HF at the end of 7-8 days. All growth factors and hypoxanthine promoted growth individually and in combination (FIG. 1 and Table 1).

Row | Molecule | Increase in growth (% control) Mean
1 | FGF10: FGF-10, also known as keratinocyte growth factor (KGF2) (protein, UniProt O15520 38-208, looked up) Fibroblast growth factor 10: QALGQDMVSPEATNSSSSSFSSPSSAGRHVRSYNHLQGDVRWRKLFSFTKYFLKIEKNGKVSGTKKENCPYSILEITSVEIGVVAVKAINSNYYLAMNKKGKLYGSKEFNNDCKLKERIEENGYNTYASFNWQHNGRQMYVALNGKGAPRRGQKTRRKNTSAHFLPMVVHS | 48.55 % control
2 | Wnt: Wnt-3a growth factor (protein, UniProt P56704 19-352, looked up) Protein Wnt-3a: SYPIWWSLAVGPQYSSLGSQPILCASIPGLVPKQLRFCRNYVEIMPSVAEGIKIGIQECQHQFRGRRWNCTTVHDSLAIFGPVLDKATRESAFVHAIASAGVAFAVTRSCAEGTAAICGCSSRHQGSPGKGWKWGGCSEDIEFGGMVSREFADARENRPDARSAMNRHNNEAGRQAIASHMHLKCKCHGLSGSCEVKTCWWSQPDFRAIGDFLKDKYDSASEMVVEKHRESRGWVETLRPRYTYFKVPTERDLVYYEASPNFCEPNPETGSFGTRDRTCNVSSHGIDGCDLLCCGRGHNARAERRREKCRCVFHWCCYVSCQECTRVYDVHTCK | 104.817 % control
3 | Nog: secreted polypeptide noggin, binds and inactivates TGF-beta superfamily signaling proteins (protein, UniProt Q13253 28-232, looked up) Noggin: QHYLHIRPAPSDNLPLVDLIEHPDPIFDPKEKDLNETLLRSLLGGHYDPGFMATSPPEDRPGGGGGAAGGAEDLAELDQLLRQRPSGAMPSEIKGLEFSEGLAQGKKQRLSKKLRRKLQMWLWSQTFCPVLYAWNDLGSRFWPRYVKVGSCFSKRSCSVPEGMVCKPSKSVHLTVLRWRCQRRGGQRCGWIPIQYPIISECKCSC | 51.45 % control
4 | Eph: member of the Ephrin family, binds to the Eph receptor (protein, UniProt P52797 23-214, looked up) Ephrin-A3: QGPGGALGNRHAVYWNSSNQHLRREGYTVQVNVNDYLDIYCPHYNSSGVGPGAGPGPGGGAEQYVLYMVSRNGYRTCNASQGFKRWECNRPHAPHSPIKFSEKFQRYSAFSLGYEFHAGHEYYYISTPTHNLHWKCLRMKVFVCCASTSHSGEKPVPTLPQFTMGPNVKINVLEDFEGENPQVPKLEKSISG | 57.61 % control
5 | BMP-6: bone morphogenesis protein-6 (protein, UniProt P22004 375-513, looked up) Bone morphogenetic protein 6: SASSRRRQQSRNRSTQSQDVARVSSASDYNSSELKTACRKHELYVSFQDLGWQDWIIAPKGYAANYCDGECSFPLNAHMNATNHAIVQTLVHLMNPEYVPKPCCAPTKLNAISVLYFDDNSNVILKKYRNMVVRACGCH | 46.44 % control
